Measurements reported in patent US20030148264A1, “Phage displayed PDZ domain ligands” (GENENTECH, INC., priority 2001, published 2003).

Legend:
[1] = biological target: T1, ERBIN PDZ domain (Homo sapiens, UniProt Q96RT1); test: Co-localization of ERBIN PDZ and δ-catenin in transfected HEK 293 cells; type: cell-based; parameters: expressed in transfected cells; host or cells: HEK 293; details: co-transfected HEK 293 cells; FIG. 7
Description: HEK 293 cells were grown to 70% confluence on collagen IV coated coverslips and then transfected with 1.4 μg of GST-ERBIN PDZ in pcDNA 3.1/V5/His and 1.1 μg of the indicated EGFP construct. 24 to 48 hours post-transfection, the cells were washed in PBS, fixed for 30 minutes in 2.5% formaldehyde, permeabilized with 0.25% Triton X-100 in PBS, and blocked with 5% donkey serum in PBS. The ERBIN PDZ domain was visualized by staining with monoclonal anti-V5 antibody (Invitrogen) and Cy3-conjugated secondary antibodies (Jackson Immunolabs) whereas GFP fusions were visualized directly. Images were taken on a standard fluorescence microscope using a 40× objective and digital CCD camera and SPOT imaging software (Diagnostic Instruments, Inc.; Sterling Heights, Mich.).
The ERBIN PDZ domain was co-transfected into HEK 293 E cells with EGFP, human δ-catenin or human δ-catenin missing the six C-terminal amino acids (FIG. 7).
Target sequence in this assay (Q96RT1 1314-1412): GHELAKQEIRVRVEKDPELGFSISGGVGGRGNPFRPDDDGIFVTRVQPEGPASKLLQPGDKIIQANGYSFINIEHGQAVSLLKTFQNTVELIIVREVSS

[2] = biological target: T2, PDZ 2 of MAGI-3 (Homo sapiens, UniProt Q5TCQ9); test: GST-PDZ co-precipitation of proteins from transfected HEK 293 cell extracts; type: binding; details: extracts from transfected HEK 293 cells; FIG. 6
T2 construct: made in house; host or cells: E. coli
T2 sequence (Q5TCQ9 584-707 isoform Q5TCQ9-2): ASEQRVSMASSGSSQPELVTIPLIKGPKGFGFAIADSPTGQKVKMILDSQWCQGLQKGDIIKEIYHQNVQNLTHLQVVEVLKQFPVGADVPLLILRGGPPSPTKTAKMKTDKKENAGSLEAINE
Description: (§1) HEK 293 (293) cells grown in high glucose Dulbeco's Modified Eagle Medium (DMEM), 10% fetal calf serum, 1× non-essential amino acid supplement, 1×L-glutamine supplement, 10 mM HEPES (pH 7.4) and penicillin/streptomycin (all from Life Technologies) to ˜80% confluence were transfected with 2 μg DNA/35 mm diameter well (for example, DNAs encoding the sequences described in EXAMPLE 5.0) using Fugene reagent (Roche Biochemical). 24 hours post-transfection, cells were washed once with PBS and then scraped into 1 ml/well of 20 mM Tris (pH 7.5), 1% Triton X-100, 200 mM NaCl, 1 mM dithiothreitol, and protease inhibitor cocktail with EDTA (Roche Biochemical, catalog #1836145) and homogenized gently with three to five strokes in a dounce (Wheaton) using a loose glass pestle. Extracts were centrifuged at 12,000 rpm in a tabletop centrifuge at 4° C. for 10 minutes; the supernatant was combined with an equal volume of homogenization buffer without NaCl to achieve a final salt concentration of 100 mM and frozen at −70° C. until use. […] Binding of 293 cell-expressed proteins was detected by immunoblot analysis using antibodies against GFP (Clontech) and Her 2 (Santa Cruz Biotechnology).
(§2) Amino acids 1217-1371 of ERBIN and 584-707 corresponding to PDZ 2 of MAGI-3 (Sidhu et al., 2000); were expressed in E. coli as GST fusions. […] Equal volumes of extract and depleted extract (sup.) were analyzed.

[3] = biological target: T1, ERBIN PDZ domain; test: as above; type: binding; parameters: made in house; host or cells: E. coli; details: extracts from transfected HEK 293 cells; FIG. 6
Description: as §1, §2
Target sequence in this assay (Q96RT1 1258-1412): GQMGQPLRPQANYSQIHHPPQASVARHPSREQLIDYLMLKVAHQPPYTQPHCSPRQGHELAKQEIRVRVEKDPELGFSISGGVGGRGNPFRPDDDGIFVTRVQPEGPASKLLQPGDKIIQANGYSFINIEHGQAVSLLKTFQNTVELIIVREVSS

- binding to / precipitation by GST-MAGI-3 PDZ 2 [2]: not to PDZ 2 of MAGI-3
- binding to / precipitation by GST-ERBIN PDZ [3]: binds strongly
B1: δ-catenin: member of the Armadillo family, expressed as EGFP fusion in HEK 293 cells; candidate ERBIN PDZ ligand (protein)
chain: MFARKPPGAAPLGAMPVPDQPSSASEKTSSLSPGLNTSNGDGSETETTSAILASVKEQELQFERLTRELEAERQIVASQLERCKLGSETGSMSSMSSAEEQFQWQSQDGQKDIEDELTTGLELVDSCIRSLQESGILDPQDYSTGERPSLLSQSALQLNSKPEGSFQYPASYHSNQTLALGETTPSQLPARGTQARATGQSFSQGTTSRAGHLAGPEPAPPPPPPPREPFAPSLGSAFHLPDAPPAAAAAALYYSSSTLPAPPRGGSPLAAPQGGSPTKLQRGGSAPEGATYAAPRGSSPKQSPSRLAKSYSTSSPINIVVSSAGLSPIRVTSPPTVQSTISSSPIHQLSSTIGTYATLSPTKRLVHASEQYSKHSQELYATATLQRPGSLAAGSRASYSSQHGHLGPELRALQSPEHHIDPIYEDRVYQKPPMRSLSQSQGDPLPPAHTGTYRTSTAPSSPGVDSVPLQRTGSQHGPQNAAAATFQRASYAAGPASNYADPYRQLQYCPSVESPYSKSGPALPPEGTLARSPSIDSIQKDPREFGWRDPELPEVIQMLQHQFPSVQSNAAAYLQHLCFGDNKIKAEIRRQGGIQLLVDLLDHRMTEVHRSACGALRNLVYGKANDDNKIALKNCGGIPALVRLLRKTTDLEIRELVTGVLWNLSSCDALKMPIIQDALAVLTNAVIIPHSGWENSPLQDDRKIQLHSSQVLRNATGCLRNVSSAGEEARRRMRECDGLTDALLYVIQSALGSSEIDSKTVENCVCILRNLSYRLAAETSQGQHMGTDELDGLLCGEANGKDAESSGCWGKKKKKKKSQDQWDGVGPLPDCAEPPKGIQMLWHPSIVKPYLTLLSECSNPDTLEGAAGALQNLAAGSWKWSVYIRAAVRKEKGLPILVELLRIDNDRVVCAVATALRNMALDVRNKELIGKYAMRDLVHRLPGGNNSNNTASKAMSDDTVTAVCCTLHEVITKNMENAKALRDAGGIEKLVGISKSKGDKHSPKVVKAASQVLNSMWQYRDLRSLYKKDGWSQYHFVASSSTIERDRQRPYSSSRTPSISPVRVSPNNRSASAPASPREMISLKERKTDYECTGSNATYHGAKGEHTSRKDAMTAQNTGISTLYRNSYGAPAEDIKHNQVSAQPVPQEPSRKDYETYQPFQNSTRNYDESFFEDQVHHRPPASEYTMHLGLKSTGNYVDFYSAARPYSELNYETSHYPASPDSWV
modifications: left off: large carriers
notes: member of the Armadillo family, expressed as EGFP fusion in HEK 293 cells; candidate ERBIN PDZ ligand
- co-localization with / recruitment of ERBIN PDZ domain [1]: complete recruitment of ERBIN PDZ to the cell junction
